Our source for the Kd values is US20160368985A1 (published 2016).

In test [1] the target is T1, human E11 protein (E11 domain of human FcRH5), soluble (human, UniProt Q96RD9 745-850).
T1 construct: Expressed in CHO cells; also called human E11 domain
T1 sequence: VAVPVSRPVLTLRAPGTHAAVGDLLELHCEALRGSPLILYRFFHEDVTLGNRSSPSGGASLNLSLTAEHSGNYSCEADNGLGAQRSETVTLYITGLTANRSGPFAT
Briefly: SPR BIACORE T200, IgG capture, monovalent. A general note: SPR reads the build-up and loss of mass on a sensor chip optically.

Test [2] addresses T2, cynomolgus E11 protein (E11 domain of cynomolgus FcRH5), soluble (cynomolgus monkey).
T2 chain: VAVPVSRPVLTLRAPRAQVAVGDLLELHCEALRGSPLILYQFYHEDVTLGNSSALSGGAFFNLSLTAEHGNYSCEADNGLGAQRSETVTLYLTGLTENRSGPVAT
Briefly: SPR BIACORE T200, IgG capture, monovalent.

B1: 15G8 (antibody, mouse IgG2a, V domains shown)
VH: EVQLQQSGPELVKPGASVKMSCKASGYTFTNYVIHWMKQKPGQGLEWIGYISPYNDYTKYNEKFEGKATLTSDKSSNTAYMELSSLTSEDSAVYYCARRDYYGSSDYWGQGTTLTVSS
VL: QIVLTQSPAIMSASPGEKVTMTCSASSSVDYMHWYQQKSGTSPKKWIYDTSKLASGVPARFSGSGSGTSYSLTIGSMEAEDAATYYCQQWSSNPPTFGGGTKLEIK
notes: Mouse mAb, Immunization Campaign C; expressed recombinantly as murine IgG2a for SPR; also called mAb 15G8
As usually defined, the Kd is the constant that tells how readily two partners part at equilibrium. Lower therefore signals a tighter complex. In the case of B1, the Kd was found to be 0.5 nM in test [1] and 9.1 nM in test [2].

B2: 17B1 (antibody, mouse IgG2a, V domains shown)
VH: QVQLQQSGPELVRPGVSVKISCKGSGYTFTHYAMHWVKQSHTKSLEWIGMISSSSGNTNFNQKFMDKATMTVDKSSTTAYLELARLTFGDSAIYYCARWSYYALFDYWGQGTTVTVSS
VL: ENVLTQSPAIMSASPGEKVTMTCSADSSVDYIHWYQQKSNTSPKLWIYDTSKLASGVPGRFSGSGSGNSYSLTISSMEAEDFATYYCFQGSGYPLTFGSGTKLELK
notes: Mouse mAb, Immunization Campaign C; expressed recombinantly as murine IgG2a for SPR
Take B2: the Kd amounted to 68 nM in test [1] and 27 nM in test [2].
